Square brackets hold non-standard residues; d marks the D form. Ends that are not written are not given here. sY = N[C@@H](Cc1ccc(OS(=O)(=O)O)cc1)C(=O)O
T1: canine parietal cell gastrin receptor (recombinant, expressed from clone GR-1 in COS-7 cells) (canine)
T1 chain: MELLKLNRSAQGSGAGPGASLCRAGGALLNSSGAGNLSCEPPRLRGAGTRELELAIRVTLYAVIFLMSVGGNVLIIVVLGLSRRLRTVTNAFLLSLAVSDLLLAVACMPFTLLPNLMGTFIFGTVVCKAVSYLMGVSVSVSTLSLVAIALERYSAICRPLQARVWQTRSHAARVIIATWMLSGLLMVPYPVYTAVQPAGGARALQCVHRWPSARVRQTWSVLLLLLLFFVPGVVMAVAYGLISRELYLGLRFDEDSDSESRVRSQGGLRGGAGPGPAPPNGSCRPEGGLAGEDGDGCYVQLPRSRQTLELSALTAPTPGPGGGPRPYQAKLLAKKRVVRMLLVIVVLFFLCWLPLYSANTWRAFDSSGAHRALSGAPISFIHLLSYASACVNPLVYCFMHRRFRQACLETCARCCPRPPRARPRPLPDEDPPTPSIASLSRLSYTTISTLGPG


What was measured:
[1] = target: T1, canine parietal cell gastrin receptor …; test: competition with 125I-CCK-8 on isolated membranes of GR-1 transfected COS-7 cells, filtration
Protocol: Binding parameters were also measured in isolated plasma membranes from COS-7 cells transfected with GR-1. Binding was performed for 60 min at 22° C.

[2] = target: T1, canine parietal cell gastrin receptor …; test: radioligand saturation binding, 2.5 to 1,000 pM 125I-CCK-8, GR-1 transfected COS-7 cells
Protocol: (§1) COS-7 cells (1.5 ×10^6) were plated in 10 cm culture dishes (Nunc) and grown in DMEM/10% fetal calf serum, 5% CO_2 at 37° C. […] Twenty-four hours following transfection, cells were split into 24-well dishes (Nunc), 5000 cells/well. […] Equilibrium binding occurred after incubation for 80 min at 37° C. Cell monolayers were subsequently washed three times and bound radioactivity was quantified after cell hydrolysis in 1N NaOH.

[3] = target: canine parietal cell gastrin receptor (recombinant, expressed from clone GR-1 in COS-7 cells) (canine)
[4] = target: T1, canine parietal cell gastrin receptor …; test: competition with 40 pM 125I-CCK-8 on intact GR-1 transfected COS-7 cells
Protocol: as §1

[5] = target: canine parietal cell gastrin receptor (recombinant, expressed from clone GR-1 in COS-7 cells) (canine); remark: listed apart in the source

Binder	IC50 [1] [pM]	Kd [2] [pM]	phosphoinositide metabolites (Ins-1,4,5-P3, Ins-1,3,4,5-P4) by HPLC (% over control) [3]	IC50 [4] [pM]	free cytosolic calcium, [Ca2+] (fura-2 fluorescence) [5] [nM]
DYMGWMDF-NH2 [CCK-8-desulfate]	1500				
DYMGWMDF (ends and bridges not checked; also: 125I label, site not given here) [125I-CCK-8]		80			
QGPWLEEEEEAYGWMDF-NH2 (ends and bridges not checked) [gastrin I]	400		741	260	142
D[sY]MGWMDF-NH2 [CCK-8 (unlabeled)]	80			90	

Source: US5541071 (New England Medical Center Hospitals, Inc., dated 1996)
